Results as given in doi:10.1101/2020.04.09.012385.

Molecular target: mouse DLX2 (Mus musculus, UniProt P40764 1-332)
Assay: EMSA

Chain of mouse DLX2 (P40764 whole entry): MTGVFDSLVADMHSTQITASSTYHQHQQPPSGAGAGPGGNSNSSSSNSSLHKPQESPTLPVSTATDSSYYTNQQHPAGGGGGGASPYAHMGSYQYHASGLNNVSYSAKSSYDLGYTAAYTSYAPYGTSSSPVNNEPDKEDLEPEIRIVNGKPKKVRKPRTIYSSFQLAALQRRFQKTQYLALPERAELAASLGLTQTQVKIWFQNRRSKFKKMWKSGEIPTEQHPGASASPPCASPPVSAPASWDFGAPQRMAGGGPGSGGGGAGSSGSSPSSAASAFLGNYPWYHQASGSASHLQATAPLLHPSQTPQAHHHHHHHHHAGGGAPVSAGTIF

B1: mR6ii (dsDNA)
DNA 1: GATCCCGCCCCAATAGGTACTAATGACTGCCTGGGTGTCTACACTCACCG
DNA 2: CGGTGAGTGTAGACACCCAGGCAGTCATTAGTACCTATTGGGGCGGGATC
- binding result: no binding
